The target of test [1] is cynomolgus TCRvβ (BJM0847) (cynomolgus). Description: SPR (Biacore), Table 21; set-up not restated.
For test [2], the target named is human TCRvβ (BIM0444) (human). Description: SPR (Biacore), Table 21; set-up not restated.
Test [3] addresses cynomolgus TCRvβ (BJM0847) (cynomolgus). In words: SPR (Biacore), comparison with the parental antibody.
The target is the same in test [4]. Description: SPR (Biacore): antibody captured on Protein L chip, BJM0847 as analyte, 1:1 fit.
Test [5] has as its target human TCRvβ (BIM0444) (human). In words: SPR (Biacore): antibody captured via anti-human Fc on CM5, BIM0444 as analyte, 1:1 fit.

Chain of human TCRvβ (BIM0444) (human) (A0A0K0K1A5 22-114): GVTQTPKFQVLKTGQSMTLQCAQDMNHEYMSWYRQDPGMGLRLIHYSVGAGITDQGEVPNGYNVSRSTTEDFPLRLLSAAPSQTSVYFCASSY

B1: BJM0901 (bispecific antibody, not shown: a dimerising Fc or GST; large carriers)
heavy: QVQLVQSGAEVKKPGSSVKVSCKASGTDFKLTYIHWVRQAPGQGLEWMGRIFPGSGNVKYNEKFKGRVTITADTSTSTAYMELSSLRSEDTAVYYCAGSYYSYDVLDYWGQGTTVTVSSGGGGSGGGGSGGGGSGGGGSDIQMTQSPSFLSASVGDRVTITCKASQNVDNRVAWYQQKPGKAPKALIYSSSHRYKGVPSRFSGSGSGTEFTLTISSLQPEDFATYFCQQFKSYPLTFGQGTKLEIKGGGGSQVQLVQSGAEVKKPGSSVKVSCKASGYTFTDYNMHWVRQAPGQGLEWIGYIYPYNGGTGYNQKFKSKATITADESTNTAYMELSSLRSEDTAVYYCARGRPAMDYWGQGTLVTVSS
light: DIQMTQSPSSLSASVGDRVTITCRASESVDNYGISFMNWFQQKPGKAPKLLIYAASNQGSGVPSRFSGSGSGTDFTLTISSLQPDDFATYYCQQSKEVPWTFGQGTKVEIK
Regarding B1, the dissociation constant Kd in test [1] was found to be 55 nM; in test [2], 7.09 nM.

B2: BJM0498 (scFv, part only; not given: Fc scaffold making it bivalent, part only)
scFv, part: QVQLVQSGAEVKKPGSSVKVSCKASGTDFKLTYIHWVRQAPGQGLEWMGRIFPGSGNVKYNEKFKGRVTITADTSTSTAYMELSSLRSEDTAVYYCAGSYYSYDVLDYWGQGTTVTVSSGGGGSGGGGSGGGGSGGGGSDIQMTQSPSFLSASVGDRVTITCKASQNVDNRVAWYQQKPGKAPKALIYSSSHRYKGVPSRFSGSGSGTEFTLTISSLQPEDFATYFCQQFKSYPLTFGQGTKLEIK
Take B2: the Kd in test [1] is 86 nM; in test [2] it was 7.9 nM; in test [4], 86 nM; in test [5], 7.9 nM. Also, in test [3], the fold improvement of affinity compared to the parental antibody is 6 fold.

B3: BJM0501 (scFv, part only; not given: Fc scaffold making it bivalent, part only)
scFv, part: QVQLVQSGAEVKKPGSSVKVSCKASGHDFRLTYIHWVRQAPGQGLEWMGRISAGSGNVKYNEKFKGRVTITADTSTSTAYMELSSLRSEDTAVYYCAGSYYSYDVLDYWGQGTTVTVSSGGGGSGGGGSGGGGSGGGGSDIQMTQSPSFLSASVGDRVTITCKASQNVADRVAWYQQKPGKAPKALIYSSSHRYKGVPSRFSGSGSGTEFTLTISSLQPEDFATYFCQQFKSYPLTFGQGTKLEIK
Turning to B3, the fold improvement of affinity compared to the parental antibody in test [3] was determined as 6 fold. Moreover, the results for the dissociation constant (Kd) in test [4] and in test [5] were 87 nM and 4.1 nM, respectively.

The values are drawn from patent US20230102344A1.
